# According to the supplement of paper PMC10065799, “High-throughput profiling of sequence recognition by tyrosine kinases and SH2 domains using bacterial peptide display” (eLife, 2023):
# Key:
# SHP2-C SH2 = assay: SH2 binding enrichment of the phosphorylated peptide, bacterial display (enrichment ratio); higher = better substrate or ligand; peptides without Tyr show the background
# c-Src SH2 = assay: as above
# Grb2 SH2 = Grb2 SH2 (UniProt P62993); assay: as above
# FGFR1 = FGFR1 (UniProt P11362); assay: phosphorylation enrichment, bacterial display (enrichment ratio); higher = better substrate or ligand; peptides without Tyr show the background
# Sequence of FGFR1 (P11362 whole entry, looked up): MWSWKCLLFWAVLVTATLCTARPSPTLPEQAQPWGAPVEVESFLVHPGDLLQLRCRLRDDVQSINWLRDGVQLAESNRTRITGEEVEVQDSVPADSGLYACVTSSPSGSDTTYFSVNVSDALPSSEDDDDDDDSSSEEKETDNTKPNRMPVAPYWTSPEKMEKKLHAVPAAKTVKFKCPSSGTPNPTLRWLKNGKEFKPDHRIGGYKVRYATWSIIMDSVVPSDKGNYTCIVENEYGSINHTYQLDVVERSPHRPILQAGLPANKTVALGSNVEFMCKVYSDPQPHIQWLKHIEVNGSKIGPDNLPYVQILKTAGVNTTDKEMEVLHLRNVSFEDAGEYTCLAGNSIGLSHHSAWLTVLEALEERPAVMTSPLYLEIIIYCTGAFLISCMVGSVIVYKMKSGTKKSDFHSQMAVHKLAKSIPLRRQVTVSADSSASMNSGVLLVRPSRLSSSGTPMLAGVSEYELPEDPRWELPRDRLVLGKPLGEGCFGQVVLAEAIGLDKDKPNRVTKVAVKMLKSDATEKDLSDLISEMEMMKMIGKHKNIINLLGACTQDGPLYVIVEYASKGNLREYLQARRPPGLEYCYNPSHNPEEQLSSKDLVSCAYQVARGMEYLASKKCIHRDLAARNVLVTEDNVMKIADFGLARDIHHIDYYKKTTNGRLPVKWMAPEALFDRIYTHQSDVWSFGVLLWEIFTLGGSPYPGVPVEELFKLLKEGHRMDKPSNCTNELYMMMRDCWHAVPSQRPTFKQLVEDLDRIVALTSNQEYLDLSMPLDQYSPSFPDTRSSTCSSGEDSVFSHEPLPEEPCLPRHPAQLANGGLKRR
# MERTK = MERTK (UniProt Q12866); assay: as above
# Fyn = Fyn (UniProt P06241); assay: as above
# Sequence of Fyn (P06241 whole entry, looked up): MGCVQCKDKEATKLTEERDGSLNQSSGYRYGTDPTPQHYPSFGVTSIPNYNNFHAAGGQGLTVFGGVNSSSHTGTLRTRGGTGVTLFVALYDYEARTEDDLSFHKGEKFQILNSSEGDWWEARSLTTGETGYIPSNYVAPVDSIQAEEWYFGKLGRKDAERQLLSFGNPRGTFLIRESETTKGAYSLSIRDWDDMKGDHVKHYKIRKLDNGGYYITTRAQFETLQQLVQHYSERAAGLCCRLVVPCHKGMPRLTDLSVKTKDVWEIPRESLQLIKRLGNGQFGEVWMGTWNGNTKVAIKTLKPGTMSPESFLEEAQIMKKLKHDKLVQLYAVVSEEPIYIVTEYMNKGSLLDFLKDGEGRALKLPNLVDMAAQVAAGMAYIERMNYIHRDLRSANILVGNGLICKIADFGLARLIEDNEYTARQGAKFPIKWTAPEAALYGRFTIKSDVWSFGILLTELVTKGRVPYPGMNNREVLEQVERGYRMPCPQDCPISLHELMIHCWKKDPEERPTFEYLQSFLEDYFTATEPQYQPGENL
# c-Abl (mouse) = assay: as above
# Hck = Hck (UniProt P08631); assay: as above
# Sequence of Hck (P08631 whole entry, looked up): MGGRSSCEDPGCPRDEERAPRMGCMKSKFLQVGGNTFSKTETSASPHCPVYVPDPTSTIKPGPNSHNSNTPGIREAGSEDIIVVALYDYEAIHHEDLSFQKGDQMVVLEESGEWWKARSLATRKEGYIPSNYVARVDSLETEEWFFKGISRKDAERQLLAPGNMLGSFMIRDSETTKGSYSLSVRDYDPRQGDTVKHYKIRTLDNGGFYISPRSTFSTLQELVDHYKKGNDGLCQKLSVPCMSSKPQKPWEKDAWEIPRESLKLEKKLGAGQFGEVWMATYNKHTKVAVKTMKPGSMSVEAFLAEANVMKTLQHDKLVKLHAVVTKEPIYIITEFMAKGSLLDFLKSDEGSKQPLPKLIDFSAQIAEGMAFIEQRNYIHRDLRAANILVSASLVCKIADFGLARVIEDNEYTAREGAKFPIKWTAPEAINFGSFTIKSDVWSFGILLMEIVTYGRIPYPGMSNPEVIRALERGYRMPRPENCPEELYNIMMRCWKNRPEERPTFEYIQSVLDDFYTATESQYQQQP
# FGFR3 = FGFR3 (UniProt P22607); assay: as above
# EPHB2 = EPHB2 (UniProt P29323); assay: as above
# Sequence of EPHB2 (P29323 whole entry, looked up): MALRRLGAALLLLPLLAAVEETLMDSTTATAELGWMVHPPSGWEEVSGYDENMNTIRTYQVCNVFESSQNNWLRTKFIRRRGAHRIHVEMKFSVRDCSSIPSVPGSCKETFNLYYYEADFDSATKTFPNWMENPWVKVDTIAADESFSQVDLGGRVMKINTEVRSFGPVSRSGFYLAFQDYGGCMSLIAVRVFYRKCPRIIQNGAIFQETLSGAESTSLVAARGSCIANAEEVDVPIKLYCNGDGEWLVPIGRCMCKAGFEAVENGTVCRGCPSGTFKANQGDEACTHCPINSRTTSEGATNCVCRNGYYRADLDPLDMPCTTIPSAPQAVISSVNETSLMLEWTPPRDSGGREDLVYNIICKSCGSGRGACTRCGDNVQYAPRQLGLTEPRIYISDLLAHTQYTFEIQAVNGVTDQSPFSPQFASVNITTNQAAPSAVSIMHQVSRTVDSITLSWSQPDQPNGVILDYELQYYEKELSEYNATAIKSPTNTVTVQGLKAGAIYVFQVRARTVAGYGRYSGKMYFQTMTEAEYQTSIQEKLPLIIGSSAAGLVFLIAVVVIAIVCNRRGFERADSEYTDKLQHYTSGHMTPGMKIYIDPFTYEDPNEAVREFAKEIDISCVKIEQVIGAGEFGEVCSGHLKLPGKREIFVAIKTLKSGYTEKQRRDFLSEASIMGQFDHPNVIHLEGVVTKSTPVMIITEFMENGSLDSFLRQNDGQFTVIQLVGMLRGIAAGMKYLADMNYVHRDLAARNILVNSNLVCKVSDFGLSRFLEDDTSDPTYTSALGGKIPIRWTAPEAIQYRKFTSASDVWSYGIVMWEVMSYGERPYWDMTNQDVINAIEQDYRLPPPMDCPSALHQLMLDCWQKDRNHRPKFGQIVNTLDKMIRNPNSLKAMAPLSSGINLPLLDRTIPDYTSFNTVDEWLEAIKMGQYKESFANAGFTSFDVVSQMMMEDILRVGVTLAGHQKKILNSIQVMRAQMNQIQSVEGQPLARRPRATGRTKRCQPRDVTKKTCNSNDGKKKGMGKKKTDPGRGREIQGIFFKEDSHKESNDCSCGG
# EPHB1 = EPHB1 (UniProt P54762); assay: as above
# Sequence of EPHB1 (P54762 whole entry, looked up): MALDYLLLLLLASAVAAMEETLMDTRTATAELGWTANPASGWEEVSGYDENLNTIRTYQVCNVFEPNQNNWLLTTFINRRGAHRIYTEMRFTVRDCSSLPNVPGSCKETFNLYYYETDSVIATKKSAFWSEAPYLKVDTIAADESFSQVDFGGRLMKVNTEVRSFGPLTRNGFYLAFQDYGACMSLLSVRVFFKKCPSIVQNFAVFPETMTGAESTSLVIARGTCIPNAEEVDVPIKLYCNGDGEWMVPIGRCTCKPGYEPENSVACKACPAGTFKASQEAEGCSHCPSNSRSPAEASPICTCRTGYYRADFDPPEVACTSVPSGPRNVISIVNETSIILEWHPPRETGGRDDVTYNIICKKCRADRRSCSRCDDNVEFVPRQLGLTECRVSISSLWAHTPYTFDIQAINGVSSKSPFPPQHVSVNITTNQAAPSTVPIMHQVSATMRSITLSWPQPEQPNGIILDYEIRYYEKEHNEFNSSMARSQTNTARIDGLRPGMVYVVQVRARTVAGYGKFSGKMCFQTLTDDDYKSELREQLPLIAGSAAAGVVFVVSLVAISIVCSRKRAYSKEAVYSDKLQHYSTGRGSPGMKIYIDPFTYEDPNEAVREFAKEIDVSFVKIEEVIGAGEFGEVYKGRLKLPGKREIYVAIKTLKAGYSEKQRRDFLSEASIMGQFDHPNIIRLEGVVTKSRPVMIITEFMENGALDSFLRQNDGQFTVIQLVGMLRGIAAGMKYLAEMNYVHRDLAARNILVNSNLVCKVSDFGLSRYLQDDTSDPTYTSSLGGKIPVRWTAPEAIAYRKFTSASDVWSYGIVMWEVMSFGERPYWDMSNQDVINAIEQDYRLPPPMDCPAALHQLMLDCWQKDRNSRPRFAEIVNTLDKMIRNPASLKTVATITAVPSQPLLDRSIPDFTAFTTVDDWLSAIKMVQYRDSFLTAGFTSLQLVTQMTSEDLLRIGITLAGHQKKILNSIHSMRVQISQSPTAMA
# Jak2 = Jak2 (UniProt O60674); assay: as above
# AncSZ = assay: as above
# Fes = Fes (UniProt P07332); assay: as above
# Sequence of Fes (P07332 whole entry, looked up): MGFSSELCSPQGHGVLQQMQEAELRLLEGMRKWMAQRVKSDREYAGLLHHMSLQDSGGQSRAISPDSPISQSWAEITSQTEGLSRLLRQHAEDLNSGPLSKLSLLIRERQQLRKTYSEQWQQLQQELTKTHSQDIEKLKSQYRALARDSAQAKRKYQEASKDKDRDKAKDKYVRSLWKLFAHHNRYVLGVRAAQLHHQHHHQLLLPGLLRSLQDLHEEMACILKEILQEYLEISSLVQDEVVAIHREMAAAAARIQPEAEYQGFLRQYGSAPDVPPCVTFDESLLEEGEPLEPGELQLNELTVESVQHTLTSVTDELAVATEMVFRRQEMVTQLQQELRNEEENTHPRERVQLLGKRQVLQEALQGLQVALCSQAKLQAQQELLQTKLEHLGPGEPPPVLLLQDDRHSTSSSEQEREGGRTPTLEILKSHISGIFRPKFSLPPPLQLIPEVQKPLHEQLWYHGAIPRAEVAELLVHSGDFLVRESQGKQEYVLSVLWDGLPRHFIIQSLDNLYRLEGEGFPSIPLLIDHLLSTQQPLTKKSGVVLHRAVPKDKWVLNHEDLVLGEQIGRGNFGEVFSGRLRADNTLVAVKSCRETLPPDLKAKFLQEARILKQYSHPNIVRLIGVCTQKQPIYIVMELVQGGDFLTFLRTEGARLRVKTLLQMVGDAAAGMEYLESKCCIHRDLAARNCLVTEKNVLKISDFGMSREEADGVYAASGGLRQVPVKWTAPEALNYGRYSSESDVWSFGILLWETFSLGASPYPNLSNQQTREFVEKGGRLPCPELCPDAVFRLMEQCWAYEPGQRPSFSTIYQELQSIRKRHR
# Fer (mouse) = assay: as above
# c-Src = assay: as above
# 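For SH2 binding enrichment of the phosphorylated peptide, bacterial display in this document: peptide library displayed on the E. coli surface as eCPX fusions, selected cells deep-sequenced, score is each peptide's frequency after selection divided by its frequency in the input.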
# 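For phosphorylation enrichment, bacterial display in this document: 11-residue human phosphosite peptides and single-mutation variants displayed on the E. coli surface, counted by deep sequencing, each peptide's frequency after selection divided by its frequency in the unselected input library; frequency after pTyr selection over input frequency; kinase dosed for 20-30% of maximal phosphorylation in three min.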
# Sequence of Grb2 SH2 (P62993 whole entry, looked up): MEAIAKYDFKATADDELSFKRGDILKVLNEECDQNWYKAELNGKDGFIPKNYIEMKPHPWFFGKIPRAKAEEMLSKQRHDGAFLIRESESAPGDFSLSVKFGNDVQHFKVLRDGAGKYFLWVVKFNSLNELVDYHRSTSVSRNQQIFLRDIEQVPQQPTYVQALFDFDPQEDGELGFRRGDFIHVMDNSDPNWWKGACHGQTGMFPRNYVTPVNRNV
Sequence,SH2 binding enrichment (SHP2-C SH2),SH2 binding enrichment (c-Src SH2),SH2 binding enrichment (Grb2 SH2),phosphorylation enrichment (FGFR1),phosphorylation enrichment (MERTK),phosphorylation enrichment (Fyn),phosphorylation enrichment (c-Abl (mouse)),phosphorylation enrichment (Hck),phosphorylation enrichment (FGFR3),phosphorylation enrichment (EPHB2),phosphorylation enrichment (EPHB1),phosphorylation enrichment (Jak2),phosphorylation enrichment (AncSZ),phosphorylation enrichment (Fes),phosphorylation enrichment (Fer (mouse)),phosphorylation enrichment (c-Src)
SKDSAYVTWEP,0.726,0.654,0.975,1.48,1.14,1.5,0.702,1.32,1.06,0.576,0.518,0.914,0.988,0.971,1.65,1.59
NETNKYQISVN [FGB_Y368_A365T],0.581,0.432,0.889,0.411,0.418,0.415,0.57,0.412,0.575,0.46,0.427,0.684,0.653,0.709,0.375,0.329
EPNSRYTCKLE [USH2A_Y3745_Y3747C],0.826,0.576,1.06,0.621,0.497,0.563,0.762,0.549,0.724,0.562,0.556,0.897,1.02,0.985,0.566,0.539
CTTIPYNYMCN [TP53_Y234_H233P],1.1,5.64,0.913,0.543,0.418,0.47,0.615,0.433,0.605,0.509,0.528,0.791,1.18,0.863,0.424,0.55
NDDDVYLSLEE [VAV2_Y142_R143L],0.616,0.477,0.834,0.725,0.507,0.706,1.05,0.721,0.984,0.627,0.793,1.54,1.49,1.48,0.656,0.804
QRTMKYTTATG [MCCC1_Y41],0.432,0.473,0.85,0.692,0.524,0.475,0.727,0.551,0.518,0.7,0.314,0.449,0.602,0.669,0.722,0.411
PPAPRCHHSAV [LZTR1_Y119_Y119C],1.51,0.89,1.31,0.839,0.566,0.921,0.842,1.28,1.21,0.701,1.17,1.75,1.61,2.01,2.15,0.718
HSGLAYTMERS [GLUD1_Y512],0.733,0.314,0.698,0.403,0.521,0.685,0.56,0.383,0.543,0.495,0.897,0.985,0.933,1.26,0.561,0.763
PDSVDYPKKGY [CTSK_Y121_R122P],0.724,0.601,0.841,0.56,0.537,0.759,0.544,0.614,0.654,0.951,0.529,0.707,0.917,0.654,0.832,0.569
LHSEAYLKFIE [PBRM1_Y1610_YF],0.881,0.39,0.887,0.939,0.556,0.856,0.886,0.813,1.21,0.881,0.877,1.37,1.56,1.51,1.1,0.486
LKVQVYILGRE [ASS1_Y359_G356V],0.968,0.804,1.46,1.34,1.36,1.13,2.44,1.49,1.95,1.88,1.58,3.33,3.58,5.15,1.59,1.39
DLITAYRAHGF [PDHA1_Y118_H113D],0.936,0.48,0.81,0.525,0.355,0.401,0.535,0.49,0.54,0.428,0.409,0.563,0.543,0.756,0.387,0.373
SVTSTYSPALN [TP53_Y126_C124S],0.787,0.491,0.672,0.511,0.379,0.432,0.586,0.459,0.398,0.426,0.437,0.465,0.641,0.712,0.436,0.488
SGETEYNPTEA [NBEAL2_Y2748],0.628,0.488,0.803,0.77,0.562,0.69,1.16,0.707,0.82,0.671,0.729,1.26,1.47,1.55,0.604,0.59
QPDFLYDHIQP [TRRAP_Y862],0.369,0.376,0.964,0.622,7.66,6.9,0.928,9.82,1.45,3.31,5.27,1.21,2.58,1.74,12,5.86
IQTDGYRAPEA [UHMK1_Y197],0.727,0.505,0.763,0.447,0.491,0.428,0.725,0.717,0.382,0.496,0.782,1.25,0.601,0.829,0.461,0.398
